The values below come from PMC4673825, “Active site coupling in Plasmodium falciparum GMP synthetase is triggered by domain rotation” (Nature Communications, 2015).

In one data set the target is T1, PfATPPase (Plasmodium falciparum, UniProt Q8IJR9).
T1 construct: gene GMPS
T1 sequence (Q8IJR9 237-555): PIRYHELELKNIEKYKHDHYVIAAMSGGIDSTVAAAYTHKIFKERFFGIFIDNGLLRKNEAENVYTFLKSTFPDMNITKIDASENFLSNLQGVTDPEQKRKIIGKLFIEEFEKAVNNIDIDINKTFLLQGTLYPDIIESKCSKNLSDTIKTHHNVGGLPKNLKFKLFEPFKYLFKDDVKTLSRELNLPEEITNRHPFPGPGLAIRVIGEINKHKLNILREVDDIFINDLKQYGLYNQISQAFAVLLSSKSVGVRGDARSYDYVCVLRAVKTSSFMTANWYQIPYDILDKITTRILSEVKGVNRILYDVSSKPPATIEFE
Briefly: ammonia-dependent GMP formation, absorbance decrease at […] nm. To be noted: NH4Cl-dependent, 20 mM MgCl2, pH 8.5, 25 °C.

Another data set relates to N. The experiment in a line: purified protein. To be noted: 2 mM ATP, 150 μM XMP, 20 mM MgCl2, pH 8.5, 25 °C.
The test system of data set [1] is O=c1[nH]c(=O)c2ncn([C@@H]3O[C@H](COP(=O)(O)O)[C@@H](O)[C@H]3O)c2[nH]1. The experiment in a line: purified protein. The format is biochemical, Plasmodium falciparum. To be noted: 2 mM ATP, 5 mM Gln, 20 mM MgCl2, pH 8.5, 25 °C, Gln-dependent.
Data set [2] concerns the molecule itself. Briefly: SAXS; in solution, 1.1-11 mg/ml in 20 mM Tris pH 7.4, 50 mM NaCl; data at 11 mg/ml analysed; ab initio envelope superimposed on the dimer crystal structure.
The data set “SAXS” concerns the molecule itself. Briefly: SAXS.
Data set [3] concerns the molecule itself. Briefly: SEC; analytical gel filtration, Superdex 200 HR 10/30, 50 mM Tris-HCl pH 7.4, 100 mM KCl; 100 μl of 20 μM protein, each injected individually. Background: SEC sorts molecules by how far they enter the pores of the column.
Substrate in data set [4]: O=c1[nH]c(=O)c2ncn([C@@H]3O[C@H](COP(=O)(O)O)[C@@H](O)[C@H]3O)c2[nH]1
The experiment in a line: purified protein. The following applies: NH4Cl-dependent, 20 mM MgCl2, pH 8.5, 25 °C.

Substrate in data set [5]: N
The experiment in a line: purified protein. To be noted: 20 mM MgCl2, pH 8.5, 25 °C.

Changes are numbered by the printed parent chain.

What is called Km is the substrate concentration at which the rate is half of its maximum. In the case of `Nc1ncnc2c1ncn2[C@@H]1O[C@H](COP(=O)(O)OP(=O)(O)OP(=O)(O)O)[C@@H](O)[C@H]1O` [ATP], the Km at PfATPPase was 56 ± 16 µM.

The term kcat denotes the maximal rate divided by the concentration of active sites. As a reminder, the kcat/Km is the second-order rate constant that governs catalysis at low substrate concentration. Take PfGMPS (Plasmodium falciparum 3D7): in the data set on N, the Km was found to be 19000 ± 1000 µM, the kcat was determined as 0.917 s⁻¹ and the kcat/Km was found to be 48.3 M⁻¹ s⁻¹. Further, in data set [1], the Km stood at 10 ± 2 µM, the kcat came to 0.733 ± 0.0167 s⁻¹ and the kcat/Km was 73300 M⁻¹ s⁻¹.

B1: Plasmodium falciparum GMP synthetase (PfGMPS), wild type (enzyme, UniProt Q8IJR9 1-555, looked up)
chain: MEGEEYDKILVLNFGSQYFHLIVKRLNNIKIFSETKDYGVELKDIKDMNIKGVILSGGPYSVTEAGSPHLKKEVFEYFLEKKIPIFGICYGMQEIAVQMNGEVKKSKTSEYGCTDVNILRNDNINNITYCRNFGDSSSAMDLYSNYKLMNETCCLFENIKSDITTVWMNHNDEVTKIPENFYLVSSSENCLICSIYNKEYNIYGVQYHPEVYESLDGELMFYNFAYNICKCKKQFDPIRYHELELKNIEKYKHDHYVIAAMSGGIDSTVAAAYTHKIFKERFFGIFIDNGLLRKNEAENVYTFLKSTFPDMNITKIDASENFLSNLQGVTDPEQKRKIIGKLFIEEFEKAVNNIDIDINKTFLLQGTLYPDIIESKCSKNLSDTIKTHHNVGGLPKNLKFKLFEPFKYLFKDDVKTLSRELNLPEEITNRHPFPGPGLAIRVIGEINKHKLNILREVDDIFINDLKQYGLYNQISQAFAVLLSSKSVGVRGDARSYDYVCVLRAVKTSSFMTANWYQIPYDILDKITTRILSEVKGVNRILYDVSSKPPATIEFE
notes: GMP synthetase of Plasmodium falciparum, EC 6.3.5.2, full-length enzyme of 555 residues: GATase domain 1-236 and ATPPase domain 237-555; also called guanosine 5'-monophosphate synthetase; ligand-free PfGMPS; source: E. coli AT2465 (pQE30PfGMPS), purified (HisTrap, Superdex 200 size exclusion)
In general, stoichiometry N refers to the number of molecules, sites or subunits per partner or assembly. Take B1: in data set [2], the “stoichiometry N” value was found to be 2.

B2: PfGMPS_C89A (glutamine-bound inactive mutant of P. falciparum GMP synthetase) (enzyme)
chain: B1 chain with C89A
On to B2, for which the “stoichiometry N” value in the data set “SAXS” is 2.

B3: PfATPPase (isolated ATP pyrophosphatase domain of PfGMPS) (domain or fragment, Plasmodium falciparum, UniProt Q8IJR9 237-555, looked up)
chain: T1 sequence (Q8IJR9 237-555)
notes: ATPPase domain of Plasmodium falciparum GMP synthetase, residues 237-555; Cloned into pET-21b(+); also called ATPPase domain; source: E. coli BL21(DE3) (pETPfATPPase), purified (60% ammonium sulfate precipitation, CM-Sepharose cation exchange)
Turning to B3, the “stoichiometry N” value in data set [3] came out at 2. The Km in “purified protein [4]” is 11 ± 4 µM. Besides, in “purified protein [5]”, the Km was determined as 7000 ± 300 µM and the kcat was 0.155 ± 0.0017 s⁻¹.
